Reference: patent publication US20200138870A1, “RECREATION OF PANCREATIC NICHE ALLOWS FOR NOVEL METHODS FOR HUMAN, MATURE BETA DERIVATION FROM PLURIPOTENT STEM CELLS” (Baylor College of Medicine, priority 2016, published 2020)
“And” between values parts separate entries of the source, which are not always exact repeats. Equal values may be shown once.

Assays:
Type in all cases: cell-based, human
3D-EPs = experiment: WNT5A treatment in 3D SC-β cell differentiation protocol (Pagliuca et al., 2014); details: 4 days of treatment, compared to INS upregulation at 12-day in original protocol
Protocol: SC-β cells were generated using the protocol as previously described (Pagliuca et al., 2014). WNT5A were introduced into the differentiation from EP stage (EN in the original paper) together with T3, ALK5i in CMRL media for the first two days and then change into T3, ALK5i in CMRL media from the third day. Samples were collected at the 4th day and 12th day counting from EP stage and were fixed with 4% PFA and thrice washed with PBS for 10 min. For whole-mount staining, samples were first blocked with 5% donkey serum in PBST overnight and incubated with antibodies overnight as described above.

EPs [1] = experiment: Proliferation by phospho-histone H3 (pH3) staining after WNT5A treatment
Protocol: (§1) Cells were incubated with 5% donkey serum (Jackson ImmunoResearch Laboratories) in PBST (PBS+0.1% Triton-X) for 30 min to avoid nonspecific binding of the antibody and to permeabilize the cells. Primary antibodies, diluted in 5% donkey serum in PBST, were then added and incubated at 4° C. overnight with shaking. After primary antibody incubation, cells were washed 3 times with PBST and secondary antibodies conjugated with Alexa-Fluor Dyes (Jackson ImmunoResearch Laboratories) and diluted in 5% donkey serum in PBST were added to the cells for 30 min at RT. Then, cells were thrice washed with PBST and nuclei were stained with Dapi (Roche Diagnostics). For imaging, Leica DMI6000 or confocal Leica TCS SPE was used. Images were initially processed by LAS X software and then further analyzed and quantified using ImageJ software (NIH, W Rasband, http://rsb.info.nih.gov/ij) using cell counter plug-in. Typically, at least 5 randomly selected images were counted per condition.

EPs [2] = experiment: Scratch assay (cell migration); details: 100 or 500 ng/ml WNT5A, 30h
Protocol: EPs were dissociated and seeded into 12 well-plate to reach 90% confluence before a scratch was made. 200 μl pipette tip was used to create a smooth scratch and followed by 3h of mitomycin C treatment. Cells were then washed thrice with PBS and B27 media with or without WNT5A was added. Pictures of the scratch wound were taken at 0, 6, 12, 18, 24 and 30h after scratch to observe cell migration. Pictures were analyzed by counting cells migrating into the gap using ImageJ.

JNK = experiment: Western blot for phosphorylated JNK and total JNK; details: short-term (12h) treatment, 500 ng/ml WNT5A
Protocol: ISL1-EGFP hESCs were differentiated into EPs and first balanced with basal media (DMEM with 1% BSA and NEAA) for 6h and then treated with 500 ng/ml WNT5A in basal media. After 12h, cell lysates were collected as imilion of EPs were pelleted, PBS washed and resuspended in 250 μl of lysis buffer (10 mM HEPES pH7.5, 10 mM MgCl2, 5 mM KCl, 0.1 mM EDTA pH8, 0.1% TritonX-100, 0.2 mM PMSF, 1 mM DTT, 1 tab of Complete Protease Inhibitor Cocktail (Roche)). Cell lysates were centrifuged 12,000 g at 4° C. for 15 min and their supernatants were collected. BCA assay were performed using Pierce BCA protein assay kit (Thermo) to determine protein concentration. For Western blot, […] of protein were denatured with 4x Laemmeli buffer (40% glycerol, 8% SDS, 240 mM Tris-HCl pH6.8, 5% β-mercaptoethanol, 12.5 mM EDTA, 0.04% bromophenol blue) at 95° C. 3 min and resolved in 8% SDS-PAGE. PVDF membranes (BioRad) were used for transfer and membrane were blocked with 5% BSA in Tris-buffered saline with 1% Tween 20 (TBST) for 1h before applying primary antibody. Membranes were washed thrice for 10 min and anti-rabbit IgG-HRP (GE Life Science) were added for 3h at RT, followed by three washes. HyGLO™ Quick Spray Chemiluminescent HRP Antibody Detection Reagent (Denville Scientific Inc.) was used to detect antigen and the membrane was developed using CL-XPosure Film (Thermo Scientific). […]

c-JUN = experiment: p-c-JUN immunofluorescence in EPs; details: WNT5A short-term treatment (24h in FIG. 6G)
Protocol: as §1

AP-1 = experiment: Dual-pathway multicolor luciferase assay, AP-1 reporter; details: 500 ng/ml WNT5A, after 24h
Excerpt: The dual-pathway luciferase reporter vector was generated using the GoldenBraid2.0 Assembly Platform (Sarrion-Perdigones et al., 2011; Sarrion-Perdigones et al., 2013). Briefly, transcriptional units comprising the promoter elements, the CDS of the corresponding luciferase and the bovine growth hormone terminator were first assembled, and then these were latter combined in successive rounds of assembly to build the multigenic vector used in this assay. For the multicolor luciferase assay, H1-derived EPs were first dissociated into 96-well plates using method previously described and incubated overnight to allow cell attachment. […] At the determined harvesting point, culture media was removed and wells were washed with PBS. […] 10 μL of LARII reagent was added with the built-in injectors and after 2 seconds, the total light and the BP filtered light emitted by the FLuc and RedF mixture were measured for 1 second. Finally, 15 μL of Stop & Glo® reagent were injected and after 4 seconds the emitted light by Renilla luciferase was measured. The activity corresponding to FLuc and RedF that were simultaneously measured after the LARII reagent was added were calculated according to the method proposed by Nakayima et al (Nakajima et al., 2005) that is adjusted to this particular assay and explained in FIG. 7D.

B1: WNT5A: secreted growth factor from the human pancreatic niche (R&D), used at 100 or 500 ng/ml (protein)
chain: IIGAQPLCSQLAGLSQGQKKLCHLYQDHMQYIGEGAKTGIKECQYQFRHRRWNCSTVDNTSVFGRVMQIGSRETAFTYAVSAAGVVNAMSRACREGELSTCGCSRAARPKDLPRDWLWGGCGDNIDYGYRFAKEFVDARERERIHAKGSYESARILMNLHNNEAGRRTVYNLADVACKCHGVSGSCSLKTCWLQLADFRKVGDALKEKYDSAAAMRLNSRGKLVQVNSRFNSPTTQDLVYIDPSPDYCVRNESTGSLGTQGRLCNKTSEGMDGCELMCCGRGYDQFKTVQTERCHCKFHWCCYVKCKKCTEIVDQFVCK
With B1 the “number of INS+ cells in independent 3D protocol (in words)” value (3D-EPs) was “increasing the number of INS+ cells”, the “effect in EP proliferation (in words)” value (EPs [1]; 3 days of WNT5A treatment) was “modest effect” and the “pH3+ cells” value (EPs [1]; 3 days of WNT5A treatment (1% in control)) was 2%. The “cell mobility in scratch assays (in words)” value (EPs [2]) was “no increase in cell mobility”, the “JNK expression and phosphorylation (in words)” value (JNK) was “increased” and the “increase in p-c-JUN (number of c-JUN+ cells) compared to untreated control” value (c-JUN) was 9 fold and 6 fold. The “AP-1 activity (in words)” value (AP-1) was “activates”.
